Measured values published in publication PMC6277223 (Neoplasia (New York, N.Y.), 2018).

Target: His-SIRT6 (UniProt Q8N6T7 1-355)
Test: pull-down

Sequence of His-SIRT6 (Q8N6T7 whole entry): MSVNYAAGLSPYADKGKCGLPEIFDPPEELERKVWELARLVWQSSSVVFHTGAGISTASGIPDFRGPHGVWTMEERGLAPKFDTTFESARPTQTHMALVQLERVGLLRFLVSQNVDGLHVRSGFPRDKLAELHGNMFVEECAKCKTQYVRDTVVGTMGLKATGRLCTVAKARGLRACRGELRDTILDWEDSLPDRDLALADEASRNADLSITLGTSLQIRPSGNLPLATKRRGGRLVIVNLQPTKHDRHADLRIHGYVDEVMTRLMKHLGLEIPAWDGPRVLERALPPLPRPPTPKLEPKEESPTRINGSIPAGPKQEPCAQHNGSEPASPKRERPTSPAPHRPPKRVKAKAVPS

binding result: binds
B1: GST-PKCζ N-terminus (1-251 aa) (domain or fragment, UniProt Q05513 1-251, looked up)
chain: MPSRTGPKMEGSGGRVRLKAHYGGDIFITSVDAATTFEELCEEVRDMCRLHQQHPLTLKWVDSEGDPCTVSSQMELEEAFRLARQCRDEGLIIHVFPSTPEQPGLPCPGEDKSIYRRGARRWRKLYRANGHLFQAKRFNRRAYCGQCSERIWGLARQGYRCINCKLLVHKRCHGLVPLTCRKHMDSVMPSQEPPVDDKNEDADLPSEETDGIAYISSSRKHDSIKDDSEDLKPVIDGMDGIKISQGLGLQD
